From publication PMC8287952, “PARP1 and CHK1 coordinate PLK1 enzymatic activity during the DNA damage response to promote homologous recombination-mediated repair” (Nucleic Acids Research, 2021)

Biological target: T1, HIS-PLK1 (UniProt P53350 1-603)
T1 construct: Polo-like kinase 1 (PLK1), HIS tagged, expressed in bacteria via pET28a; also called HIS tagged PLK1; source: bacterially produced (pET28a system)
Experiment: pull-down; GST-CHK1 (insect cells) as bait, HIS-PLK1 (bacterial) as prey; 1 μg of each in NETN buffer (20 mM Tris–HCl pH 8.0, 0.15 M NaCl, 1 mM EDTA, 0.5% NP-40), 4°C overnight; glutathione-sepharose beads; immunoblotting
Conditions: both partners purified

T1 sequence (P53350 whole entry): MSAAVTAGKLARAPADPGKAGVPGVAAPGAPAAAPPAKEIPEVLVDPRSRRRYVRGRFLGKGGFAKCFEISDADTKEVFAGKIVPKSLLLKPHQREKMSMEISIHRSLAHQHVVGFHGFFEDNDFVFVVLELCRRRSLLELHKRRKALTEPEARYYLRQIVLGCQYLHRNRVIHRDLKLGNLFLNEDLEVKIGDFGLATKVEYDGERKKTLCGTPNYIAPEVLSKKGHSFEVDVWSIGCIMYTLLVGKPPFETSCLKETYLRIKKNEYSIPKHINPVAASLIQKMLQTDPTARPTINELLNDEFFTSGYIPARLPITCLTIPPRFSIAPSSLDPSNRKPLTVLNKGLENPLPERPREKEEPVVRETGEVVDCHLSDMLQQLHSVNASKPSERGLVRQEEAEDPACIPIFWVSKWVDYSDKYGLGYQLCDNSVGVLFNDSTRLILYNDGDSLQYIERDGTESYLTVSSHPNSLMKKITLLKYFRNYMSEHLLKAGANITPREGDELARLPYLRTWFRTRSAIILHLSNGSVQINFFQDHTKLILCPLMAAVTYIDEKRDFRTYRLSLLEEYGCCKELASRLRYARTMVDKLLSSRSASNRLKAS

B1: Recombinant human active protein GST-CHK1 (enzyme, UniProt O14757 1-476, looked up)
chain: MAVPFVEDWDLVQTLGEGAYGEVQLAVNRVTEEAVAVKIVDMKRAVDCPENIKKEICINKMLNHENVVKFYGHRREGNIQYLFLEYCSGGELFDRIEPDIGMPEPDAQRFFHQLMAGVVYLHGIGITHRDIKPENLLLDERDNLKISDFGLATVFRYNNRERLLNKMCGTLPYVAPELLKRREFHAEPVDVWSCGIVLTAMLAGELPWDQPSDSCQEYSDWKEKKTYLNPWKKIDSAPLALLHKILVENPSARITIPDIKKDRWYNKPLKKGAKRPRVTSGGVSESPSGFSKHIQSNLDFSPVNSASSEENVKYSSSQPEPRTGLSLWDTSPSYIDKLVQGISFSQPTCPDHMLLNSQLLGTPGSSQNPWQRLVKRMTRFFTKLDADKSYQCLKETCEKLGYQWKKSCMNQVTISTTDRRNNKLIFKVNLLEMDDKILVDFRLSKGDGLEFKRHFLKIKGKLIDIVSSQKIWLPAT
notes: Human checkpoint kinase CHK1, recombinant active protein; source: bought: R&D Systems (1630-KS-010), produced in insect cells
binding result: binds
